# Earlier results, collected in PMC4487222.
# Molecular target: CheY (Thermotoga maritima) (UniProt Q56312)
# Sequence (Q56312 whole entry): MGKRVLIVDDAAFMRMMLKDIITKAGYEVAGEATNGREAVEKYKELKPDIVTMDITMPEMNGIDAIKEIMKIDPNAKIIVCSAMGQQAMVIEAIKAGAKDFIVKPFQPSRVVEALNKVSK
# Chain of CheA (Q56310 whole entry): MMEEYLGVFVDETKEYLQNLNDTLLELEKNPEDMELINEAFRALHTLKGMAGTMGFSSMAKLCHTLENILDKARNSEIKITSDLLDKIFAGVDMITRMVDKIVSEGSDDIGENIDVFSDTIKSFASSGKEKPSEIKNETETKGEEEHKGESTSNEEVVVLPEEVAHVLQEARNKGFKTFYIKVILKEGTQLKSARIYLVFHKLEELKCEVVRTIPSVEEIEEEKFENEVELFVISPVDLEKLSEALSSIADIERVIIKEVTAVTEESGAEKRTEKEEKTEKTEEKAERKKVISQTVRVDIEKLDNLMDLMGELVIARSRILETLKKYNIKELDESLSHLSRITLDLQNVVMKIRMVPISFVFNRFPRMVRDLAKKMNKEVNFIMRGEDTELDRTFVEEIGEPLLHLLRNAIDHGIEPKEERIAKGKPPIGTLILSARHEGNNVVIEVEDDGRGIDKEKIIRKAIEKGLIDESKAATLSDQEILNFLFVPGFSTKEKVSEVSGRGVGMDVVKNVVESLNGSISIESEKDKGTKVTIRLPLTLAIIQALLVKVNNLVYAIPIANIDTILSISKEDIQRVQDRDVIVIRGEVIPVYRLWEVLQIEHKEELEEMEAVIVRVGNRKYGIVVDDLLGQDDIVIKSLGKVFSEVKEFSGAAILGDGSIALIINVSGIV
substance,measurement,value
CheA (from UniProt Q56310),Kd,200 nM
